The text below walks through data of article PMC11109976, “CSB and SMARCAL1 compete for RPA32 at stalled forks and differentially control the fate of stalled forks in BRCA2-deficient cells” (Nucleic Acids Research, 2024).

Assay [1] has as its target RPA32C C-terminal domain (Homo sapiens) (UniProt P15927). The experiment in a line: ITC. Conditions: cited from earlier work.
Assay [2] deals with T1, RPA32 construct spanning the region 210-270 (UniProt P15927 210-270, RED-tris-NTA dye on the His tag).
T1 construct: RPA32, residues 210-270 (C-terminal winged helix domain); Cloned by LIC; also called RPA32(210-270); C-terminal winged helix domain of RPA32; source: E. coli SoluBL21, purified (Ni-NTA, anion exchange, SEC)
T1 sequence (P15927 210-270): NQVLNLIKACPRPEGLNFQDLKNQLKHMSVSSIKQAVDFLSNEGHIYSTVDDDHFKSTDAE
The experiment in a line: MST; RPA32C labelled with RED-tris-NTA (His-tag labelling kit), 100 nM mixed 1:1 with 2-fold serial dilutions of the ligand; 50 mM HEPES pH 8.0, 400 mM NaCl, 10% glycerol, 0.05% Tween-20; incubated 30 min at 37°C, measured at 25°C; three replicates. Conditions: both partners purified.

Chain of RPA32C C-terminal domain (Homo sapiens) (P15927 202-270): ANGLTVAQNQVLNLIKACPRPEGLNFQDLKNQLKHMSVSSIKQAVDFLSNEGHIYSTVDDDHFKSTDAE

For the molecule “SMARCAL1 peptide 5-30 (from UniProt Q9NZC9)”, the Kd in assay [1] is 2.9 µM.

B1: SMARCAL1 peptide (residues 5-30) (peptide)
peptide: LTEEQRKKIEENRQKALARRAEKLLA
notes: SMARCAL1, residues 5-30; also called 26-amino acid SMARCAL1 peptide; source: synthetic peptide, bought: LifeTein, LLC
In assay [2], B1 had a Kd of 470 µM.

Usually Kd stands for a measure of binding affinity in units of concentration.
